{"source": "patent US10370433B2", "about": "“Compositions and methods for diagnosis and treatment of cancer” (BIONTECH AG, priority 2015, dated 2019)", "key": {"[1]": {"system": "CHO-K1-huSeprase tumors", "experiment": "Biodistribution and tumor targeting of AlexaFluor-680 conjugates, near-infrared optical imaging", "type": "in vivo, Fox n1 nu mice", "method": "For in vivo imaging assays female Fox n1 nu mice (6-8 weeks of age, Harlan, Envigo) were used. The experiments were performed according to national regulations and approved by the local animal experiments ethical committee. Subconfluent CHO-K1-huSeprase cells were harvested and resuspended in PBS to a density of 1×10^7 cells/ml. Prior to inoculation, cell viability was tested by 0.4% trypan blue exclusion assay (viable cells>90%). For subcutaneous injection 1×10^6 CHO-K1-huSeprase cells in 100 μl PBS were mixed with 100 μl Matrigel (Corning) and injected into the right side of the limb. When tumor volumes reached 600-800 mm^3, animals were randomly separated into several groups for different treatments (n=3 per each group). […] At different time points after the injection, mice were anaesthetized by inhalation of isoflurane. In vivo imaging was conducted using a Xenogen IVIS Spectrum imaging System (Perkin Elmer, USA). Maximal near infrared signals (NIRF) were quantified using Living Image 2.5 (Xenogen, Perkin Elmer) image analysis software. For ex vivo NIRF imaging, the mice were sacrificed, and the tumor and major organs of each mouse were excised, weighed and analyzed by Xenogen IVIS System.\nTo analyze the pharmacokinetic and tumor targeting properties of the AF680-(MC-FA-012)3 trimer biodistribution in female Fox n1 nu mice was monitored at six time points after injection (1, 2, 4, 6, 24 and 96 h). […] After each time point biodistibution was measured in vivo and ex vivo using a Xenogen Imaging system (FIG. 14 A+B). […] Overall, the background signals for the binder and for the non-binding control were in the same range."}, "[2]": {"biological_target": "T1, recombinant human Seprase (rhuSeprase) (Homo sapiens, UniProt Q12884)", "T1 construct": "named pCEP4-IgKappa-huSeprase-coCHO_26-760aa-H6 and used for the generation of recombinant soluble human Seprase (rhuSeprase); mouse Ig kappa-chain V-J2-C secretion signal (N, cleaved yes); made in house; host or cells: FreeStyle CHO-S cells (transient transfection; purified from supernatant by Ni-chelate and SEC)", "T1 sequence (Q12884 26-760)": "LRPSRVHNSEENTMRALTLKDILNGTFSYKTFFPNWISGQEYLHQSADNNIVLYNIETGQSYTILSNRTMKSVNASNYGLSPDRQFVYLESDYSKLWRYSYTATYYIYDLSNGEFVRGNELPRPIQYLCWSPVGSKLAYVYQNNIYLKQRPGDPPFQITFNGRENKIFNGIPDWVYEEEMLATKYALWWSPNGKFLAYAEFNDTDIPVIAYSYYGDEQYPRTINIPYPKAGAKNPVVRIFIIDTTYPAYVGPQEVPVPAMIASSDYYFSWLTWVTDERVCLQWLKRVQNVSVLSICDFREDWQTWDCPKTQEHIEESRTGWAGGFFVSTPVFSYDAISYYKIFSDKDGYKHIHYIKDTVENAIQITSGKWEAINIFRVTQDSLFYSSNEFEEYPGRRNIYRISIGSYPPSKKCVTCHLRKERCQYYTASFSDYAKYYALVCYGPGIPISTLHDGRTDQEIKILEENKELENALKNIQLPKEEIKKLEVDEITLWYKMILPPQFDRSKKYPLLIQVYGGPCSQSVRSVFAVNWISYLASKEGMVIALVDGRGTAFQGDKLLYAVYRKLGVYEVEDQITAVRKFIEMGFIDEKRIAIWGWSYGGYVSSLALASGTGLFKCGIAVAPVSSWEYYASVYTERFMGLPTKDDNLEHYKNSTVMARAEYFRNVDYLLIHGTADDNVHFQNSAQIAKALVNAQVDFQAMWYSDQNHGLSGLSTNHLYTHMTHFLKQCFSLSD", "experiment": "Surface plasmon resonance (Biacore T100) on immobilized rhuSeprase", "type": "binding"}}, "data": [{"molecule": "AF680-(MC-FA-012)3: AlexaFluor 680 conjugated MC-FA-012 trimer (conjugate, left off: things letters cannot carry; small tags and cut ends, AlexaFluor 680 conjugated MC-FA-012 trimer) chain 1: GACPYSNWTPGRGPDCRRDSDCPGRCICRGNGYCG chain 2: GACPYSNWTPGRGPDCRRDSDCPGRCICRGNGYCG chain 3: GACPYSNWTPGRGPDCRRDSDCPGRCICRGNGYCG", "values": [{"measurement": "kidney signals", "setting": "[1]; mouse, in vivo", "value": "strong kidney signals"}, {"measurement": "signals in lung, heart, spleen and liver", "setting": "[1]; mouse, in vivo", "value": "generally low"}, {"measurement": "tumor uptake", "setting": "[1]; up to 24 h after injection", "value": "specific and significant tumor uptake"}, {"measurement": "offrate, times slower compared to MC-FA-012", "setting": "[2]", "value": "around 134 times"}, {"measurement": "ka", "setting": "[2]; 1:1 binding model", "value": "1.68e+07", "unit": "M⁻¹ s⁻¹"}]}]}
